Laboratory results taken from patent publication US20160297884A1 (Pfizer, published 2016).
Residue numbers refer to the chain shown, from its start.

T1: Human BCMA (human, UniProt Q02223 1-54, limits assumed)
T1 construct: Soluble analyte in SPR; construct not described; also called huBCMA; B-cell maturation antigen
T1 sequence (looked up): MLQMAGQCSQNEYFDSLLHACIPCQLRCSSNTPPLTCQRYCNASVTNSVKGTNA

T2: Human BCMA (human, UniProt Q02223 1-54, limits assumed)
T2 construct: also called huBCMA; B-cell maturation antigen
T2 sequence (looked up): T1 sequence (looked up)

B1: L3.PY/H2.DY (antibody, V domains shown)
VH: EVQLLESGGGLVQPGGSLRLSCAASGFTFGSYAMTWVRQAPGKGLEWVSAIDYSGGNTFYADSVKGRFTISRDNSKNTLYLQMNSLRAEDTAVYYCARVSPIASGMDYWGQGTLVTVSS
VL: EIVLTQSPGTLSLSPGERATLSCRASQSVSSSYLAWYQQKPGQAPRLLIYGASSRATGIPDRFSGSGSGTDFTLTISRLEPEDFAVYYCQHYPYPPSFTFGQGTKVEIK
notes: IgG
B2: L3.PY/H2.YQ (antibody, V domains shown)
VH: B1 VH with D52S, S54Q
VL: B1 VL
notes: IgG
B3: L3.PY/H3.YA (antibody, V domains shown)
VH: B1 VH with D52S, Y53G, A103Y, S104A
VL: B1 VL
notes: IgG
B4: L3.PY/H2.QR (antibody, V domains shown)
VH: B1 VH with D52S, Y53G, S63Q, V64R
VL: B1 VL
notes: IgG
B5: L3.PY/H3.TAQ (antibody, V domains shown)
VH: B1 VH with D52S, Y53G, A97T, S104A, G105Q
VL: B1 VL
notes: IgG
B6: L3.PY/H2.HA (antibody, V domains shown)
VH: B1 VH with D52S, Y53H, S54A
VL: B1 VL
notes: IgG
B7: L3.PY/H2.LT (antibody, V domains shown)
VH: B1 VH with D52S, Y53L, S54T
VL: B1 VL
notes: IgG
B8: L3.PY/H3.AQ (antibody, V domains shown)
VH: B1 VH with D52S, Y53G, S104A, G105Q
VL: B1 VL
notes: IgG
B9: L3.PY/H3.AE (antibody, V domains shown)
VH: B1 VH with D52S, Y53G, S104A, G105E
VL: B1 VL
notes: IgG
B10: L3.PY/H2.QL (antibody, V domains shown)
VH: B1 VH with D52S, Y53G, S63Q, V64L
VL: B1 VL
notes: IgG
B11: COMBO_Rd4_6nM_C08 (antibody, V domains shown)
VH: EVQLLESGGGLVQPGGSLRLSCAASGFTFSSYPMSWVRQAPGKGLEWVSAIGGSGTWTYYADSVKGRFTISRDNSKNTLYLQMNSLRAEDTAVYYCARYWPMDSWGQGTLVTVSS
VL: EIVLTQSPGTLSLSPGERATLSCRASQSVSSSYLAWYQQKPGQAPRLLMYDASIRATGIPDRFSGSGSGTDFTLTISRLEPEDFAVYYCQQYQKWPLTFGQGTKVEIK
notes: IgG
B12: A02_Rd4_0.6nM_C18 (antibody, V domains shown)
VH: B11 VH with P33A, S35N, I51V, G52L, G53D, T56G, W57S, D103S, S104L
VL: B11 VL with S31E, S32L, Q93F, K94G
notes: IgG
B13: COMBO_Rd4_0.6nM_C22 (antibody, V domains shown)
VH: B11 VH with P33A, S35N, G52S, G53D, T56G, W57S, T58R, Y59W, A97T, S104I
VL: B11 VL with Q27V, S28R, S32T, Q93M
notes: IgG; also called COM22
B14: COMBO_Rd4_6nM_C12 (antibody, V domains shown)
VH: EVQLLESGGGLVQPGGSLRLSCAASGFTFSSYPMSWVRQAPGKGLEWVSAALGSGGSTYYADSVKGRFTISRDNSKNTLYLQMNSLRAEDTAVYYCARYWPMDSWGQGTLVTVS
VL: B11 VL with S31A, Q93M, K94S
notes: IgG
B15: COMBO_Rd4_6nM_C21 (antibody, V domains shown)
VH: B11 VH with T56G, W57S, T58L, Y59P
VL: B11 VL with S31A, S32A, Q93M, K94C
notes: IgG
B16: COMBO_Rd4_6nM_C22 (antibody, V domains shown)
VH: B11 VH with P33A, S35N, I51C, G52L, G53D, T56G, W57S
VL: B11 VL with K94G
notes: IgG
B17: COMBO_Rd4_6nM_C09 (antibody, V domains shown)
VH: B11 VH with G52F, G53A, T56G, W57S
VL: B11 VL with S31A, S32Q, K94A
notes: IgG
B18: COMBO_Rd4_6nM_C25 (antibody, V domains shown)
VH: B11 VH with T56G, W57S, S104P
VL: B11 VL with S32P, K94S
notes: IgG
B19: P5A2_VHVL (antibody, V domains shown)
VH: B11 VH with P33A, S35N, G52S, G53D, T56G, W57S, S104I
VL: B11 VL with Q93G, K94S
notes: IgG
B20: COMBO_Rd4_6nM_C10 (antibody, V domains shown)
VH: B11 VH with T56G, W57S, T58I, Y59H
VL: B11 VL with L34W, A35G, K94C
notes: IgG
B21: P5C1_VHVL (antibody, V domains shown)
VH: B11 VH with T56G, W57S
VL: B11 VL with S32T, M49I, I54S, T57P, Q93S, K94T, W95S
notes: IgG; also called PC1
B22: COMBO_Rd4_6nM_C11 (antibody, V domains shown)
VH: B11 VH with T56G, W57S, T58L, Y59G
VL: B11 VL with S31P, S32L, Q93K, K94A
notes: IgG

target: T1, Human BCMA; test: SPR, IgG immobilised, 37 C
Protocol: (§1) All experiments were performed on a Bio-Rad Proteon XPR36 surface Plasmon resonance biosensor (Bio-Rad, Hercules, Calif.). […] The analysis temperature for the immobilization was 25° C. and the running buffer was HBS-T+(10 mM HEPES, 150 mM NaCl, 0.05% Tween-20, pH 7.4). Channels were activated in the analyte (horizontal) direction by injecting a mixture of 1 mM ECD and 0.25 mM NHS for 3 minutes at a flow rate of 30 μL/min. IgGs were immobilized on the activated spots by injecting them in the ligand (vertical) direction at 20 μg/mL in 10 mM Acetate pH 4.5 buffer for 1.5 minutes at […]. The activated surfaces were blocked by injecting 1M ethanolamine, pH 8.5 in the analyte direction for 3 minutes at 30 μL/min.
(§2) The analysis temperature for the BCMA binding analysis was 37° C. or 25° C. in a running buffer of HBS-T+, supplemented with 1 mg/mL BSA. A kinetic titration method was employed for the interaction analysis as described in Abdiche, et al. Human BCMA (huBCMA) or cynomolgus monkey BCMA (cyBCMA) analyte was injected in the analyte direction using a series of injections from low to high concentration. The concentrations used were 0.08 nM, 0.4 nM, 2 nM, 10 nM and 50 nM (a 5-membered series, with a 5-fold dilution factor and top concentration of 50 nM). The association time for a given analyte dilution was two minutes. Immediately after the 50 nM BCMA injection, dissociation was monitored for 2 hours.
(§3) The sensorgrams were double-referenced and fit to a 1:1 Langmuir with mass transport kinetic titration model in BIAevaluation Software version 4.1.1 (GE Lifesciences, Piscataway, N.J.).

Binder | Kd [nM] | T ½ [min] | koff [s⁻¹] | kon [M⁻¹ s⁻¹]
B1 | 0.53 | 8.37 | 0.00138 | 2.6e+06
B2 | 0.6 | 7.41 | 0.00156 | 2.58e+06
B3 | 0.37 | 9.82 | 0.00118 | 3.15e+06
B4 | 0.46 | 9.75 | 0.00119 | 2.56e+06
B5 | 0.37 | 10.1 | 0.00114 | 3.08e+06
B6 | 0.6 | 7.89 | 0.00147 | 2.43e+06
B7 | 0.54 | 8.95 | 0.00129 | 2.4e+06
B8 | 0.56 | 6.69 | 0.00173 | 3.08e+06
B9 | 0.42 | 8.32 | 0.00139 | 3.29e+06
B10 | 0.82 | 5.31 | 0.00218 | 2.64e+06

target: T3, cynomolgus monkey BCMA (cynomolgus monkey, UniProt A0A2K5UD97 1-53); test: SPR, IgG immobilised, 37 C
T3 construct: Soluble analyte in SPR; construct not described; also called cyBCMA; Cyno BCMA
Protocol: as §1, §2, §3

T3 sequence (A0A2K5UD97 entry or part of it): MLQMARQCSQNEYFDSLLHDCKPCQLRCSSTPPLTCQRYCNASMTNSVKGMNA

Binder | Kd [nM] | T ½ [min] | koff [s⁻¹] | kon [M⁻¹ s⁻¹]
B1 | 2.76 | 1.87 | 0.00618 | 2.24e+06
B2 | 2.53 | 1.86 | 0.00621 | 2.46e+06
B3 | 1.88 | 2.14 | 0.0054 | 2.87e+06
B4 | 3.02 | 1.76 | 0.00658 | 2.18e+06
B5 | 1.7 | 2.64 | 0.00437 | 2.57e+06
B6 | 3.79 | 1.53 | 0.00755 | 1.99e+06
B7 | 3.63 | 1.53 | 0.00757 | 2.09e+06
B8 | 1.94 | 2.14 | 0.00539 | 2.77e+06
B9 | 1.79 | 2.29 | 0.00504 | 2.82e+06
B10 | 6.16 | 0.91 | 0.0126 | 2.05e+06

target: T4, Cynomolgus monkey BCMA (cynomolgus monkey); test: SPR, IgG immobilised, cyno BCMA analyte
T4 construct: Soluble analyte in SPR; also called cyBCMA; Cyno BCMA
Protocol: as §1, §2, §3

Binder | Kd [nM] | koff [s⁻¹] | kon [M⁻¹ s⁻¹]
B11 | 0.14 | 0.000428 | 3.06e+06
B12 | 0.197 | 0.000639 | 3.24e+06
B13 | 0.05 | 6.66e-05 | 1.34e+06
B14 | 0.148 | 0.000486 | 3.29e+06
B15 | 0.078 | 0.000248 | 3.17e+06
B16 | 0.972 | 0.00165 | 1.7e+06
B17 | 0.134 | 0.000318 | 2.37e+06
B18 | 0.079 | 0.000226 | 2.85e+06
B19 | 10.2 | 0.0164 | 1.61e+06
B20 | 0.105 | 0.00016 | 1.52e+06
B21 | 15.2 | 0.0538 | 3.53e+06
B22 | 0.156 | 0.000412 | 2.64e+06

target: T2, Human BCMA; test: SPR, IgG immobilised, human BCMA analyte
Protocol: as §1, §2, §3

Binder | Kd [nM] | koff [s⁻¹] | kon [M⁻¹ s⁻¹]
B11 | 0.019 | 0.000169 | 8.99e+06
B12 | 0.048 | 0.000229 | 4.73e+06
B13 | 0.036 | 7.15e-05 | 1.97e+06
B14 | 0.02 | 0.00027 | 1.38e+07
B15 | 0.006 | 7.34e-05 | 1.17e+07
B16 | 0.256 | 0.000775 | 3.03e+06
B17 | 0.016 | 0.000143 | 8.85e+06
B18 | 0.014 | 0.000113 | 7.98e+06
B19 | 5.57 | 0.0387 | 6.96e+06
B20 | 0.018 | 9.72e-05 | 5.47e+06
B21 | 5.99 | 0.0692 | 1.16e+07
B22 | 0.018 | 0.000124 | 6.74e+06
